Results from doi:10.1101/2025.11.07.687251 (2025).

B1: GFP-ATG13(1–230):ATG101 [human] / GST-WIPI2 [not stated] (parent complex)
chain 1: METDLNSQDRKDLDKFIKFFALKTVQVIVQARLGEKICTRSSSSPTGSDWFNLAIKDIPEVTHEAKKALAGQLPAVGRSMCVEISLKTSEGDSMELEIWCLEMNEKCDKEIKVSYTVYNRLSLLLKSLLAITRVTPAYRLSRKQGHEYVILYRIYFGEVQLSGLGEGFQTVRVGTVGTPVGTITLSCAYRINLAFMSTRQFERTPPIMGIIIDHFVDRPYPSSSPMHPCN
chain 2: MNCRSEVLEVSVEGRQVEEAMLAVLHTVLLHRSTGKFHYKKEGTYSIGTVGTQDVDCDFIDFTYVRVSSEELDRALRKVVGEFKDALRNSGGDGLGQMSLEFYQKKKSRWPFSDECIPWEVWTVKVHVVALATEQERQICREKVGEKLCEKIINIVEVMNRHEYLPKMPTQSEVDNVFDTGLRDVQPYLYKISFQITDALGTSVTTTMRRLIKDTLAL
chain 3: MNLASQSGEAGAGQLLFANFNQDNTSLAVGSKSGYKFFSLSSVDKLEQIYECTDTEDVCIVERLFSSSLVAIVSLKAPRKLKVCHFKKGTEICNYSYSNTILAVKLNRQRLIVCLEESLYIHNIRDMKVLHTIRETPPNPAGLCALSINNDNCYLAYPGSATIGEVQVFDTINLRAANMIPAHDSPLAALAFDASGTKLATASEKGTVIRVFSIPEGQKLFEFRRGVKRCVSICSLAFSMDGMFLSASSNTETVHIFKLETVKEKPPEEPTTWTGYFGKVLMASTSYLPSQVTEMFNQGRAFATVRLPFCGHKNICSLATIQKIPRLLVGAADGYLYMYNLDPQEGGECALMKQHRLDGSLETTNEILDSASHDCPLVTQTYGAAAGKAYTDDLGAVGGACLEDEASALRLDEDSEHPPMILRTD
B2: GFP-ATG13(1–230):ATG101 [human] / GST-WIPI3 [not stated] (parent complex)
chain 1: B1 chain 1
chain 2: B1 chain 2
chain 3: not shown

Variants of: B1
Assay: GST beads binding assay (microscopy-based, Glutathione Sepharose beads); 20 mM HEPES (pH 7.5), 200 mM NaCl, 2 mM MgCl2, 1 mM TCEP; room temperature, 60 minutes; read off a plot

Q: How did the response turn out when chain 1 H214D, chain 1 F215D was run?
A: Its response is roughly 21000 A.U.

Variants of: B2
Assay: GST beads binding assay (microscopy-based, Glutathione Sepharose beads); 0.5 μM GST bait; 20 mM HEPES (pH 7.5), 200 mM NaCl, 2 mM MgCl2, 1 mM TCEP; room temperature, 60 minutes; read off a plot

Q: With chain 1 H214D, chain 1 F215D as the variant, how does the response read?
A: Its response is roughly 12000 A.U.
